According to paper PMC5387054, “Zinc-Dependent Transcriptional Regulation in Paracoccus denitrificans”:

B1: specific competitor (zur/znuA), 59 bp (dsDNA)
DNA 1: GGGCATGATGTTATATCGTTACATTTTTGCTTGACGGGTTACGATATAACATAAATAAC
DNA 2: GTTATTTATGTTATATCGTAACCCGTCAAGCAAAAATGTAACGATATAACATCATGCCC

Legend:
[1] = biological target: T1, Zur (Paracoccus denitrificans) (UniProt A1B9K9); assay: EMSA; conditions: EMSA: 10 mM Tris pH 8.0, 10 mM NaCl, 100 mM K-glutamate, 50 mM KCl, 1 mM DTT, 1.07 ug/ml BSA, 0.1 uM DNA, 0-20 uM Zur, 25 uM ZnCl2, 100 uM EDTA; 30 min room …
T1 sequence: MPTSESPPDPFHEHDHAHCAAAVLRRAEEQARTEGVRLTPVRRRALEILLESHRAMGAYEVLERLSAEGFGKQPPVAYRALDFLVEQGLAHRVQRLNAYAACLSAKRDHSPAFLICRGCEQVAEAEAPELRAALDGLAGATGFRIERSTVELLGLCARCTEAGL

[2] = biological target: Paracoccus denitrificans zinc uptake regulator (Zur) (Paracoccus denitrificans PD1222); assay: SEC; Factor Xa cleavage reaction mixture applied to a Hi-Prep Sephacryl S-100 HR column, 20 mM Tris pH 8.0, 150 mM NaCl, calibrated with proteins of 6.5 to 75 kDa
[3] = biological target: T2, Zur (Paracoccus denitrificans, UniProt A1B9K9 1-164); assay: competition; probe zur/znuA 0.1 uM; 10 uM Zur, 25 uM Zn2+, 100 uM EDTA; 5 uM competitor; shift disrupted, not fully displaced; EMSA: 10 mM Tris pH 8.0, 10 mM NaCl, 100 mM K-glutamate, 50 mM KCl, 1 mM DTT, 1.07 ug/ml BSA, 0.1 uM DNA, 0-20 uM Zur, 25 uM ZnCl2, 100 uM EDTA; 30 min room temperature; 8% native PAGE at 4 C; conditions: protein: recombinant; tags: MBP (pMAL-c5X) removed by Factor Xa; chain copies: 2; blunt
T2 sequence: T1 sequence

Molecule	binding [1]	other results
AAGAGAGGGTTGAGCCTGCCCGGTAAAGGGCCGGGCGGGATGATCCGCCAGGCGCATGGGCGAAGCCCTCTTGCATCCCCGGGTGGGTAATATAATAACATAACAAAATCTCCGAGGATAACGCTCATGCTCTGCAAACTGCTCGCTT (double strand) [pden1341 promoter]	binds	
Paracoccus denitrificans zinc uptake regulator (Zur) (natural protein)		stoichiometry N [2]: 2
AATCACAAAACCGGCGCCTCGGCATTTCCCCGCTGATGCTTTGCCCTCTCGCCGCGGGTCCTGCGGCTTTTCGGACGACCGGCGCGGCATGGCTTGCCGTTCCGGTTTAGTAATGTAATAACATCACCAAAATATCGAGTCCGCTATCCAGTGATGCCCAGAACC (double strand) [aztA promoter]	binds	
CGGCAAGGACAAGGGAAGAAGGTCGGATCATGGCGAGACTCACTTGCGGAAACGCCAAGGTTATTTATGTTATATCGTAACCCGTCAAGCAAAAATGTAACGATATAACATCATGCCCACTTCGGAATCCCCGCCTGACCCGTTTCACG (double strand) [zur/znuA promoter (149 bp)]	binds	
GCCGCCCGCTGACCAGATTTCCGCCGGGACCAGCCTGCGCCCGTCCCGGCGCCCTCCCCCGAACCCCATCAAGGAGACTTTCCATGCTCAGACATCTCGCGGGCGCCAGCGCCCTTGCCCTGACCTT (double strand) [aztD promoter (negative control, 128 bp)]	binds more weakly	
B1		binding result [3]: binds
